In the supplement of paper PMC10567573:

B1: IFRG15 (parent)
chain: INRADYCPECYPDNPANRSLVLPW

Variants of: B1
Test: protein stability index of a GFP-peptide fusion (GPS, HEK-293T) (PSI 1-6); higher = more stable
Conditions: c terminus: a fixed tail appended
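Further: lentivirally expressed fusions sorted by FACS into six bins by GFP to DsRed ratio, PSI derived from sequencing read proportions per bin multiplied by bin number.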

| Variant | protein stability index |
| --- | --- |
| INRADYCPICYPDNPANRSLVLPW [E9I] | 1.38 |
| INRADYCPWCYPDNPANRSLVLPW [E9W] | 1.58 |
| INRADYCPCCYPDNPANRSLVLPW [E9C] | 2.4 |
| INRADYCPNCYPDNPANRSLVLPW [E9N] | 1.92 |
| INRADYCPYCYPDNPANRSLVLPW [E9Y] | 1.31 |
| INRADYCPKCYPDNPANRSLVLPW [E9K] | 1.63 |
| INRADYCPSCYPDNPANRSLVLPW [E9S] | 1.86 |
| INRADYCPACYPDNPANRSLVLPW [E9A] | 2.71 |
| INRADYCPMCYPDNPANRSLVLPW [E9M] | 1.82 |
| INRADYCPTCYPDNPANRSLVLPW [E9T] | 1.86 |
| INRADYCPPCYPDNPANRSLVLPW [E9P] | 3.15 |
| INRADYCPVCYPDNPANRSLVLPW [E9V] | 3.07 |
| INRADYCPGCYPDNPANRSLVLPW [E9G] | 1.66 |
| INRADYCPLCYPDNPANRSLVLPW [E9L] | 2.07 |
| INRADYCPQCYPDNPANRSLVLPW [E9Q] | 1.62 |
| INRADYCPRCYPDNPANRSLVLPW [E9R] | 2.02 |
| INRADYCPDCYPDNPANRSLVLPW [E9D] | 2.39 |
| INRADYCPHCYPDNPANRSLVLPW [E9H] | 1.63 |
| INRADYCPFCYPDNPANRSLVLPW [E9F] | 1.78 |
| INRADYCPEHYPDNPANRSLVLPW [C10H] | 2.6 |
| INRADYCPEGYPDNPANRSLVLPW [C10G] | 2.81 |
| INRADYCPEEYPDNPANRSLVLPW [C10E] | 2.83 |
| INRADYCPEAYPDNPANRSLVLPW [C10A] | 2.41 |
| INRADYCPEDYPDNPANRSLVLPW [C10D] | 3.65 |

| Variant | protein stability index |
| --- | --- |
| INRADYCPENYPDNPANRSLVLPW [C10N] | 2.62 |
| INRADYCPELYPDNPANRSLVLPW [C10L] | 2.31 |
| INRADYCPEIYPDNPANRSLVLPW [C10I] | 1.74 |
| INRADYCPEFYPDNPANRSLVLPW [C10F] | 2.66 |
| INRADYCPEMYPDNPANRSLVLPW [C10M] | 2.83 |
| INRADYCPEKYPDNPANRSLVLPW [C10K] | 2.59 |
| INRADYTPECYPDNPANRSLVLPW [C7T] | 2.68 |
| INRADYYPECYPDNPANRSLVLPW [C7Y] | 2.41 |
| INRADYHPECYPDNPANRSLVLPW [C7H] | 2.13 |
| INRADYLPECYPDNPANRSLVLPW [C7L] | 1.97 |
| INRADYMPECYPDNPANRSLVLPW [C7M] | 2.08 |
| INRADYSPECYPDNPANRSLVLPW [C7S] | 3.23 |
| INRADYFPECYPDNPANRSLVLPW [C7F] | 2.28 |
| INRADYVPECYPDNPANRSLVLPW [C7V] | 2.34 |
| INRADYAPECYPDNPANRSLVLPW [C7A] | 2.58 |
| INRADYNPECYPDNPANRSLVLPW [C7N] | 2.81 |
| INRADYKPECYPDNPANRSLVLPW [C7K] | 2.95 |
| INRADYGPECYPDNPANRSLVLPW [C7G] | 2.62 |
| INRADYRPECYPDNPANRSLVLPW [C7R] | 2.73 |
| INRADYDPECYPDNPANRSLVLPW [C7D] | 3.72 |
| INRADYQPECYPDNPANRSLVLPW [C7Q] | 2.74 |
| INRADYWPECYPDNPANRSLVLPW [C7W] | 1.43 |
| INRADYEPECYPDNPANRSLVLPW [C7E] | 2.5 |
| INRADYIPECYPDNPANRSLVLPW [C7I] | 2.27 |

| Variant | protein stability index |
| --- | --- |
| INRADYPPECYPDNPANRSLVLPW [C7P] | 2.42 |
| INRADNCPECYPDNPANRSLVLPW [Y6N] | 2.86 |
| INRADECPECYPDNPANRSLVLPW [Y6E] | 2.52 |
| INRADQCPECYPDNPANRSLVLPW [Y6Q] | 3.12 |
| INRADLCPECYPDNPANRSLVLPW [Y6L] | 2.05 |
| INRADDCPECYPDNPANRSLVLPW [Y6D] | 2.9 |
| INRADGCPECYPDNPANRSLVLPW [Y6G] | 2.65 |
| INRADSCPECYPDNPANRSLVLPW [Y6S] | 3.25 |
| INRADTCPECYPDNPANRSLVLPW [Y6T] | 3.14 |
| INRADHCPECYPDNPANRSLVLPW [Y6H] | 3.04 |
| INRADKCPECYPDNPANRSLVLPW [Y6K] | 2.66 |
| INRADACPECYPDNPANRSLVLPW [Y6A] | 2.62 |
| INRADWCPECYPDNPANRSLVLPW [Y6W] | 2.3 |
| INRADVCPECYPDNPANRSLVLPW [Y6V] | 2.46 |
| INRADICPECYPDNPANRSLVLPW [Y6I] | 2.24 |
| INRADRCPECYPDNPANRSLVLPW [Y6R] | 2.44 |
| INRADCCPECYPDNPANRSLVLPW [Y6C] | 2.67 |
| INRADPCPECYPDNPANRSLVLPW [Y6P] | 3.33 |
| INRADFCPECYPDNPANRSLVLPW [Y6F] | 2.22 |
| INRADMCPECYPDNPANRSLVLPW [Y6M] | 2.21 |
| INRAQYCPECYPDNPANRSLVLPW [D5Q] | 1.93 |
| INRASYCPECYPDNPANRSLVLPW [D5S] | 2.07 |
| INRAVYCPECYPDNPANRSLVLPW [D5V] | 2.21 |
| INRAYYCPECYPDNPANRSLVLPW [D5Y] | 1.15 |

| Variant | protein stability index |
| --- | --- |
| INRAWYCPECYPDNPANRSLVLPW [D5W] | 1.91 |
| INRATYCPECYPDNPANRSLVLPW [D5T] | 1.55 |
| INRARYCPECYPDNPANRSLVLPW [D5R] | 2.39 |
| INRADYCQECYPDNPANRSLVLPW [P8Q] | 2.48 |
| INRADYCTECYPDNPANRSLVLPW [P8T] | 1.82 |
| INRADYCYECYPDNPANRSLVLPW [P8Y] | 2.48 |
| INRADYCAECYPDNPANRSLVLPW [P8A] | 1.27 |
| INRADYCVECYPDNPANRSLVLPW [P8V] | 1.95 |
| INRADYCCECYPDNPANRSLVLPW [P8C] | 2.07 |
| INRADYCSECYPDNPANRSLVLPW [P8S] | 2.46 |
| INRADYCKECYPDNPANRSLVLPW [P8K] | 2.47 |
| INRADYCEECYPDNPANRSLVLPW [P8E] | 2.34 |
| INRADYCHECYPDNPANRSLVLPW [P8H] | 2.3 |
| INRADYCLECYPDNPANRSLVLPW [P8L] | 1.85 |
| INRADYCGECYPDNPANRSLVLPW [P8G] | 2.67 |
| INRADYCMECYPDNPANRSLVLPW [P8M] | 1.71 |
| INRADYCFECYPDNPANRSLVLPW [P8F] | 2.1 |
| INRADYCDECYPDNPANRSLVLPW [P8D] | 2.64 |
| INRADYCIECYPDNPANRSLVLPW [P8I] | 1.5 |
| INRADYCWECYPDNPANRSLVLPW [P8W] | 2.02 |
| INRADYCRECYPDNPANRSLVLPW [P8R] | 1.99 |
| INRADYCNECYPDNPANRSLVLPW [P8N] | 1.88 |
